# In patent US20100234274A1, “Use of Nestafin-1 in the Treatment for Diabetes” (priority 2009, published 2010):
# T1: recombinant nesfatin-1 (UniProt P81117)
# T1 sequence: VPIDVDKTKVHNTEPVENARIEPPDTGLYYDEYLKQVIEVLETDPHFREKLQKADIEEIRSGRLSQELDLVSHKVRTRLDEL
# B1: nesfatin-1: recombinant nesfatin-1 expressed and purified from genetically engineered E. coli; secreted N-terminus fragment of NUCB2 (protein)
# peptide: T1 sequence
# B2: NUCB2: hypothalamus-secreted protein containing 396 amino acids, precursor of nesfatin-1 (protein, UniProt P80303 25-420, looked up)
# Nucleobindin-2: VPIDIDKTKVQNIHPVESAKIEPPDTGLYYDEYLKQVIDVLETDKHFREKLQKADIEEIKSGRLSKELDLVSHHVRTKLDELKRQEVGRLRMLIKAKLDSLQDIGMDHQALLKQFDHLNHLNPDKFESTDLDMLIKAATSDLEHYDKTRHEEFKKYEMMKEHERREYLKTLNEEKRKEEESKFEEMKKKHENHPKVNHPGSKDQLKEVWEETDGLDPNDFDPKTFFKLHDVNSDGFLDEQELEALFTKELEKVYDPKNEEDDMVEMEEERLRMREHVMNEVDTNKDRLVTLEEFLKATEKKEFLEPDSWETLDQQQFFTEEELKEYENIIALQENELKKKADELQKQKEELQRQHDQLEAQKLEYHQVIQQMEQKKLQQGIPPSGPAGELKFEPHI
# Tests used:
# db/db mice [1] = assay: i.v. injection of plasmin inhibitors in db/db mice (serum nesfatin-1, food intake, body weight); assay type: in vivo, mouse; settings: for circulating nesfatin-1: serum at 30 minutes
# Experimental: Lower nesfatin-1 in “saline” than “ff db/db” (FIG. 3b) was due to blood dilution after injection. (b) Reduction in body weight after a 3-day i.v. AMCA (15 mg/day); (c) Food intake at day 3 during a 3-day i.v. AMCA (15 mg/day).
# Hypothalamus in acetic acid supplemented with protease inhibitor cocktail tablets (Roche, Indianapolis, Ind.) was homogenized, sonicated and heated at 95° C. for 15 minutes. The samples were then centrifuged at 13,200 rpm at 4° C. for 30 minutes. The supernatants were finally collected as their protein contents were determined by the Bradford assay (Thermo-Fisher Sci. Rockford, Ill.). Mouse serum was freshly prepared by drawing blood through ophthalmectomy. About […] hypothalamic total proteins or 25 μL serum were analyzed with Waters Delta 600E/2487/717 HPLC system using an analytical C18 reverse phase column (4.6×250 mm/5 μm, Hambon, Zhangjiagang, Conn.). Nesfatin-1 was eluted with a linear gradient from 20%-40% solvent B (solvent A: water with 0.1% trifluoroacetic acid, solvent B: acetonitrile with 0.1% trifluoroacetic acid) for 20 minutes at the flow rate of iml/minute. The purified nesfatin-1 was used as the standard to determine the retention time and plot the standard curve. The fraction collected at the retention time was sent for the mass spectrometry analysis.
# It is unknown how nesfatin-1 is cleared from circulation. The tiny amount of plasmin generation in periphery was previously reported and confirmed in our study (data not shown). AMCA and aprotinin, two inhibitors of plasmin, was i.v. injected to db/db. The reduction in food intake and body weight was seen while circulating nesfatin-1 was increased (FIG. 8). […] Therefore, peripheral nesfatin-1 was believed at least partially to be degraded by plasmin.
# db/db mice [2] = assay: Inhibitor pre-treatment before i.v. nesfatin-1 in db/db mice, blood glucose; assay type: in vivo, mouse; settings: blood glucose in 6 hours
# Experimental: GW9662, a PPAR-gamma irreversible inhibitor, was i.v. injected into the tail vein of db/db mice at the dose of 0.45 μg per gram body weight. After 30 minutes, 100 ug Nesfatin-1 was injected into the tail vein of db/db mice. Blood glucose was measured in 6 hours.
# Compound C, a 5′-AMP-activated protein kinase (AMPK) specific inhibitor, was intraperitoneally injected to db/db mice at the dose of 20 mg per kg body weight. Subsequently, 100 ug Nesfatin-1 was injected into the tail vein of db/db mice. Blood glucose was measured in 6 hours.
# recombinant nesfatin-1 = molecular target: T1, recombinant nesfatin-1
# [3] = i.c.v. or i.p. injection; cited from earlier work
# [4] = Clearance of i.v. nesfatin-1 from circulation; assay type: in vivo, mouse
# [5] = both directions, nonsaturable system; cited from earlier work
# plasmin = plasmin (Homo sapiens, UniProt P00747); assay: Incubation of recombinant nesfatin-1 with plasmin; assay type: biochemical
# plasmin, sequence (P00747 97-810, species assumed): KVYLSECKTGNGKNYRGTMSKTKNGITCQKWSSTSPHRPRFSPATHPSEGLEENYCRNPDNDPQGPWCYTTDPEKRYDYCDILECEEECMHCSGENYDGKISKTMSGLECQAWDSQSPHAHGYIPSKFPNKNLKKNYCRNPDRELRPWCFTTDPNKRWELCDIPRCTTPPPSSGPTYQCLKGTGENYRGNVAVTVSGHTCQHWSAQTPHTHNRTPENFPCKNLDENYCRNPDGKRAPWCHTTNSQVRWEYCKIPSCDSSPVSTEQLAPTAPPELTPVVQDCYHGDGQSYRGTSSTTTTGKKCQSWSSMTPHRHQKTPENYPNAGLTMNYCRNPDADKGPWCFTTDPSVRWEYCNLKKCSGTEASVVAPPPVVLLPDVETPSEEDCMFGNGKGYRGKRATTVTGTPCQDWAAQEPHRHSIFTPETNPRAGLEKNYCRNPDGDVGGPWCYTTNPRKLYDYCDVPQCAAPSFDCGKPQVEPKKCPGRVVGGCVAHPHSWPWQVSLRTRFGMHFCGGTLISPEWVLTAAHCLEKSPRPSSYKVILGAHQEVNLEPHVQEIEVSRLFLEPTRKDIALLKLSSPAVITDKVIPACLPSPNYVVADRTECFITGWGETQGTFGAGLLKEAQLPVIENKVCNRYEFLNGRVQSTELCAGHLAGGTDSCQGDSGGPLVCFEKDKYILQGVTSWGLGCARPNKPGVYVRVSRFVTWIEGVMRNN
# plasmin, sequence (P00747 97-580 partner limits assumed, species assumed): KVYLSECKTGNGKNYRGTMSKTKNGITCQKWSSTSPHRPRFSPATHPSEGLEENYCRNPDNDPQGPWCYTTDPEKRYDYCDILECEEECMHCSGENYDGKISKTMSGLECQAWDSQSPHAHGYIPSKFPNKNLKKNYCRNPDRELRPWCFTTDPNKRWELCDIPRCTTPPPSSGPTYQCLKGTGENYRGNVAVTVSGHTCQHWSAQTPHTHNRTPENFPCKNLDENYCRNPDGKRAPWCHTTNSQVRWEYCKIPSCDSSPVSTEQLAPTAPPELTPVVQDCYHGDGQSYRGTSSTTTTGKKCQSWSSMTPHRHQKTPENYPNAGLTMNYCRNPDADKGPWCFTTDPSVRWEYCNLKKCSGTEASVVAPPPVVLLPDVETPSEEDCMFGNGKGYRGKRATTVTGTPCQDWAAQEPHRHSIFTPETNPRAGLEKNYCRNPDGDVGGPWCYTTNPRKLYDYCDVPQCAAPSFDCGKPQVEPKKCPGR
# Experimental: Arrows indicated the putative cleavage sites by plasmin. (b) Nesfatin-1 was completely digested by plasmin within 2 hours.
# The recovery of hypothalamic nesfatin-1 in plg^−/−lepr^−/− was consistent to its normalization in food intake and body weight (FIG. 2ac). Fasted mice always had less nesfatin-1 in hypothalamus than their freely feeding counterparties (FIG. 5b). Furthermore, plasminogen deficiency provided a unique approach to study the chronic effect of elevated nesfatin-1 in hyperphagic obese animals, which was impossible for the i.c.v. or i.p. administration due to the short half-time of nesfatin-1. Consequently, agrp and npy were found reduced in plg^−/−lepr^−/−, while pomc was elevated compared with plg^+/+lepr^−/− (FIG. 6), contradicting to the previous report that i.c.v. nesfatin-1 didn't alter the expression of pomc, npy and agrp. Consistent to the present finding, the same group reported the up-regulation of pomc by i.p. nesfatin-1 in NTS recently.
# ob/ob mice = assay: Blood lipid analysis after i.v. nesfatin-1 in ob/ob mice; assay type: in vivo, mouse; settings: 100 ug tail vein, 3 hours after injection
# Experimental: One hundred ug Nesfatin-1 was injected into the tail vein of ob/ob mice. Blood samples were taken 3 hours after the injection for lipid analysis.
# rats [6] = settings: cited from earlier work
# [7] = tested on: Streptozotocin-induced type-I diabetic C57BL/6J mice; assay: Streptozotocin-induced type-I diabetic mice, blood glucose; assay type: in vivo; settings: 100 μg/mouse i.v. alone or combined with s.c. insulin (2 ng/mouse)
# Experimental: (§1) Amazingly as described above, the diabetic symptoms of db/db mice were essentially eliminated in plg^−/−lepr^−/−, which couldn't be possibly explained by the anorexigenic effect of nesfatin-1.
# Male C57BL/6J mice (10 weeks) were given intraperitoneal injections of Streptozotocin (STZ) in sodium citrate (pH 4.5) on two consecutive days (100 mg/kg/day). Blood glucose was measured by tail vein sampling using the glucose oxidase enzymatic test. Diabetes was defined as a morning blood glucose reading of >16 mM after STZ. When blood glucose levels exceeded 30 mM, diabetic mice were given 16 ng of porcine insulin (Wangbang, Xuzhou, Conn.) every second day to prevent weight loss while maintaining blood glucose levels within the hyperglycemic range (16-30 mM). Nesfatin-1 (100 μg/mouse) was i.v. injected either alone or combined with s.c. insulin (2 ng/mouse) to STZ-induced type-I diabetic mice.
# wild-type mice = assay: Intraperitoneal glucose tolerance test (IGTT) in wild-type mice; assay type: in vivo, mouse; settings: 100 μg nesfatin-1, i.v. injection of 1.5 g/kg glucose
# Experimental: Mice of the investigated genotype (plg^+/+lepr^−/−, plg^−/−lepr^−/−, plg^+/+lepr^+/+, plg^−/−lepr^+/+) were fasted for 18 hours at 8, 16 and 24 weeks old, before blood sampling from tail veins to measure fasting blood glucose using a glucose meter (Accu-Chek, Roche). Mice serum insulin was measured at the age of 12 weeks by ELISA (ALPCO, Salem, N.H.). IGTT was performed previously. As briefly, 12-week old mice were placed in clean cages without food at 4 pm on the day prior to the experiment. […] Blood glucose was measured immediately before and at 10, 20, 30, 60, 90, 120, and 180 minutes after the injection of glucose.
# as §1
# db/db mice [8] = assay: Blood glucose after i.v. nesfatin-1 in db/db mice; assay type: in vivo, mouse
# rats [9] = settings: injected directly into the brain of rats; cited from earlier work
molecule,measurement,setting,value
aprotinin,body weight,db/db mice [1],reduction
same,food intake,db/db mice [1],reduction
same,circulating nesfatin-1,db/db mice [1],increased
"NC[C@H]1CC[C@H](C(=O)O)CC1 [AMCA, tranexamic acid]",body weight,db/db mice [1],reduction
same,food intake,db/db mice [1],reduction
same,circulating nesfatin-1,db/db mice [1],increased
O=C(Nc1ccccc1)c1cc([N+](=O)[O-])ccc1Cl [GW9662],inhibition of the anti-diabetic effect of nesfatin-1,"db/db mice [2]; 0.45 μg per gram body weight i.v., 30 minutes before 100 ug nesfatin-1",fully inhibited
plasmin,degradation of recombinant nesfatin-1 on incubation with plasmin,recombinant nesfatin-1,It was then incubated with plasmin and rapidly degraded as expected
same,digestion of nesfatin-1 by plasmin (in vitro incubation),recombinant nesfatin-1,Nesfatin-1 was completely digested by plasmin within 2 hours
c1cc(-c2cnn3cc(-c4ccc(OCCN5CCCCC5)cc4)cnc23)ccn1 [Compound C],inhibition of the anti-diabetic effect of nesfatin-1,db/db mice [2]; 20 mg per kg body weight intraperitoneally before 100 ug nesfatin-1,fully inhibited
B1,body weight,[3],reduces body weight
same,food intake,[3],inhibits food intake
same,clearance in plg−/− versus plg+/+,"[4]; i.v., data not shown",cleared much slower
same,half-life in circulation,"[4]; mouse, in vivo",10 min
same,blood brain barrier crossing,[5],crosses the Blood Brain Barrier (BBB)
same,time to complete digestion by plasmin,plasmin; FIG. 4b,≤ 2 h
same,degradation on incubation with plasmin,plasmin; recombinant nesfatin-1 from E. coli,rapidly degraded
same,HDL in blood,ob/ob mice,unaffected
same,LDL in blood,ob/ob mice,significantly reduced
same,total cholesterol in blood,ob/ob mice,significantly reduced
same,triglyceride in blood,ob/ob mice,significantly reduced
same,neuropsychological effect,rats [6],increasing anxiety and fear-related behaviors
same,blood glucose,[7],decreased only when nesfatin-1 was injected with s.c. insulin
same,uptake of blood sugar during IGTT,wild-type mice,significantly enhanced the uptake of blood sugar
same,blood glucose,"db/db mice [8]; 100 μg i.v., freely fed db/db",significantly reduced
same,diabetic improvement,"db/db mice [8]; i.c.v. injection, db/db, data not shown",little diabetic improvement
same,duration of anti-diabetic effect,db/db mice [8]; i.v.,> 6 h
same,dose and time dependence of anti-diabetic effect,"db/db mice [8]; i.v., FIG. 7d, e",dose- and time-dependent
B2,body weight,rats [9],decreases body weight
same,feeding,rats [9],promotes anorexia
